Reference: patent publication US20110286916A1 (published 2011)
Read-outs that look alike come from different tables or passages of the source.

Columns and labels:
[1] = target: T1, human full-length Notch1 with C-terminal FLAG tag, stably expressed on 293 FlpIn (TREx) cells (human, UniProt P46531 19-2555); test: FACS, hN1 293 cells, MFI grade (+ 11-100)
T1 construct: tetracycline/doxycycline-induced expression from pcDNA5/FRT/TO-HN1+FLAG; also called hN1; 293_N1
Description: (§1) Notch 293 FlpIn (TREx) cells were treated with dox (2 ug/ml) for two days to induce Notch expression before collecting them for FACS surface expression analysis. The cells were harvested from tissue culture flasks using Trypsin for 15 min, centrifuged at 1200 rpm for 10 minutes and resuspended in 2 ml PBS with 2% fetal bovine serum (2% FBS/PBS). The cells were counted, adjusted to 10⁷ cells/ml and 0.1 ml of cells was incubated with 1 ug of each Mab for 40 minutes at 4° C. The cells were washed, resuspended in 0.1 ml 2% FBS/PBS and incubated with 1 ug R-PE-conjugated goat anti-human Ig (Jackson ImmunoResearch) for 30 minutes at 4° C. Cells were washed, resuspended in 0.3 ml PBS with 10% formaldehyde and analyzed on a FACSCalibur (Becton Dickinson, Mt View, Calif.).

[2] = target: T2, Notch1 extracellular fragment (amino acid 19-526) Fc fusion protein, R&D Systems 3647-TK (human, UniProt P46531 19-526); test: BIAcore SPR, Notch1/Fc on CM5, Mab analyte, 1:1 binding
T2 construct: bought protein; also called Notch1/Fc; Notch1-ECD Fc fusion protein; not shown: Fc of the bought fusion protein
Description: All experiments were performed at 25° C. at a flow rate of 40 μl/min. […] FC1 was used as the reference cell. Specific signals were the results of differences of signals obtained on FC2 versus FC1. […] The dissociation phase of the analyte was monitored over a period of time ranging 10-30 minutes. Running buffer was also injected under the same conditions as a reference.
Equilibrium dissociation constant (KD) was calculated by the ratio between dissociation (koff) and association (kon) rate constants.

[3] = target: T3, human Notch3-Gal4 chimeric receptor on U2OS FlpIn TREx cells (human, UniProt Q9UM47 40-2321); test: cell-based or functional assay
[4] = target: T1, human full-length Notch1 with …; test: FACS, hN1 293 cells, MFI grade (++ 101-500)
Description: as §1

[5] = target: T2, Notch1 extracellular fragment (amino …); test: titration ELISA, antigen coated, purified IgG1
Description: Plates were blocked with 300 ul of milk blocker per well and incubated for 2 hour at RT. […] After washing plates with PBS or TBS buffer, anti-human lambda light chain antibody with HRP was used for detection antibody and absorbance at 450 nm was read with a plate reader.

[6] = target: T3, human Notch3-Gal4 chimeric receptor on …; test: cell-based or functional assay; remark: listed apart in the source
[7] = target: T1, human full-length Notch1 with …; test: FACS, hN1 293 cells, MFI grade (++++ >1000)
Description: as §1
Clones were analyzed as described in Section I-Example 12. We analyzed the corresponding Mabs for their binding to 293-N1, -N3 and 293 parental cells by flow cytometry.

Binder | MFI [1] [mfi] | Kd [2] [nM] | koff [2] [s⁻¹] | kon [2] [M⁻¹ s⁻¹] | hN3, inhibition of Luc activity at [166 nM] Mab [3] [%] | MFI [4] [mfi] | EC50 [5] [nM] | hN3, inhibition of Luc activity at [166 nM] Mab [6] [%] | MFI [7] [mfi]
WC-168 (antibody, human IgG1, lambda, V domains shown, also called N1wc168; hN1wc-168) VH: EVQLVQSGAEVKKPGASVKVSCKASGYNFTGYYMHWVRQAPGQGLEWMGWINPNSGGTNYAQKFQGRVTMTRDTSISTAYMELSRLRSDDTAVYYCATDSFDYWGRGTLVTVSS VL: not shown | 11 to 100 | 4.7 | 0.00228 | 486000 | < 10 |  |  |  | 
S3-013 (antibody, human IgG1, lambda, V domains shown, also called hN1S3-013; HN1S3-13) VH: EVQLVQSGAEVKKPGASVKVSCKASGYNFTGYYMHWVRQAPGQGLEWMGWINPNSGGTNYAQKFQGRVTMTRDTSISTAYMELSRLRSDDTAVYYCATDSFDYWGRGTLVTVSS VL: QPVLTQPPSASGTPGQRVTISCSGSSSNIGSNYVYWYQKFPGTAPKLLIYTNNQRPSGVPDRFSGSKSGTSASLAISGLRSEDEADYYCAAWDDSLSGVVFGGGTKVTVLQ | 11 to 100 | 4.92 | 0.00294 | 597000 | < 10 |  |  |  | 
S3-056 (antibody, human IgG1, lambda, V domains shown, also called hN1S3-056; HN1S3-56) VH: QVQLQQSGAEVKKPGASVKVSCKASGYNFTGYYMHWVRQAPGQGLEWMGWINPNSGGTNYAQKFQGRVTMTRDTSISTAYMELSRLRSDDTAVYYCATDSFDYWGRGTLVTVSS VL: not shown | 11 to 100 | 5.65 | 0.00292 | 517000 | < 10 |  |  |  | 
S3-094 (antibody, human IgG1, lambda, V domains shown, also called hN1S3-094; HN1S3-94) VH: EVQLVQSGAEVKKPGASVKVSCKASGYNFTGYYMHWVRQAPGQGLEWMGWINPNSGGTNYAQKFQGRVTMTRDTSISTAYMELSRLRSDDTAVYYCATDSFDYWGRGTMVTVSS VL: QSVLTQPPSASGTPGQRVTISCSGGSSNIGSNTVTWYQQLPGKAPKLLIYISDQRPSGVPDRFSGSKSGTSASLAIRGLQSEDEADYYCAAWDDSLNGAVFGTGTKVTVLQ |  | 3.89 | 0.00163 | 420000 | < 10 | 101 to 500 |  |  | 
WC-173 (antibody, human IgG1, lambda, V domains shown, also called N1wc173; hN1wc-173) VH: EVQLVQSGAEVKKPGASVKVSCKASGYNFTGYYMHWVRQAPGQGLEWMGWINPNSGGTNYAQKFQGRVTMTRDTSISTAYMELSRLRSDDTAVYYCATDSFDYWGQGTTVTVSS VL: QPVLTQPPSASWTPGQRVTISCSGSSSNIGSNTVHWYRQFPGTAPQLLIYSNNQRPSGVPDRFSGSKSGTSASLAIRGLQSEDEADYYCAAWDDSLNGVVFGGGIKLTVLQ |  | 3.27 | 0.000447 | 137000 | < 20 | 101 to 500 |  |  | 
WC-155 (antibody, human IgG1, lambda, V domains shown, also called N1wc155; hN1wc-155) VH: EVQLVQSGAEVKKPGASVKVSCKASGYNFTGYYMHWVRQAPGQGLEWMGWINPNSGGTNYAQKFQGRVTMTRDTSISTAYMELSRLRSDDTAVYYCATDSFDYWGRGTLVTVSS VL: QSVLTQPPSVSGAPGQRVTISCTGSSSNIGAGYDVLWYRQLPGTAPKLLIYGNTHRPSGVPDRFSGSNSGTSASLAITGLQAEDEADYYCQSYDSSLSGSVFGGGTKLTVLQ |  | 1.74 | 0.00029 | 166000 | < 10 | 101 to 500 |  |  | 
WC-159 (antibody, human IgG1, lambda, V domains shown, also called N1wc159) VH: QLQLVETGGGLVKPGESLTLSCAASGFTFSSYSMNWVRQAPGKGLEWVSSISSSGSSIYYADSLKGRFTISRDNAKNSLYLQMNSLRAEDTAVYYCTRGTQWLAGVGDYWGKGTLVTVSS VL: QSALTQPPSASASPGQSVTISCTGTSSDVGAYDSVSWYQQHPGKAPKLIIYDVNNRPSGVSNRFSGSESGNTASLTISGLQAEDEANYYCSSYRNTKTVVFGGGTKLTVLQ |  |  |  |  | < 10 |  | 0.12 |  | 
WC-97 (antibody, human IgG1, lambda, V domains shown, also called N1wc97; hN1wc-97) VH: EVQLVQSGAEVKKPGASVKVSCKASGYNFTGYYMHWVRQAPGQGLEWMGWINPNSGGTNYAQKFQGRVAMTRDTSISTAYMELSRLRSDDSAVYYCATDSFDYWGRGTTVTVSS VL: QSVLTQPPSVSGAPGQRVTISCTGTSSNIGAGYDVQWYQQLPGTAPKVLMYGNSNRPSGVPDRFSGSKSGTSASLAITGLQAEDEADYYCQSYDSSLSGSLFGTGTKVTVLQ | 11 to 100 | 7.87 | 0.000438 | 55600 | < 10 |  |  |  | 
A2780-C2-16 (antibody, human IgG1, lambda, V domains shown, full IgG1/lambda chains; name tied through the DNA section of Appendix IX (same order); also called B-000000397-000M) VH: EVQLVQSGAEVKKPGSSVKVSCKASGGTFSSFAFSWVRQAPGQGLDWMGRIIPILGRTNYAQKFQGRVTFTADTSTSTVYMELSSLSSEDTAVYYCARDREYSLSLGGSDYWGQGTLVTVSS VL: QAVLTQPSSVSGAPGQRVTISCIGSSSNIGAGYDVHWYRQPPGTAPQLLIYANTNRPSGVPDRFSGSRSGTSASLAITGIQAEDEADYYCQSYDSSLSGRVFGGGTKVTVLG |  |  |  |  |  |  |  | < 15 | > 1000
FL-JEG3-C2-11 (antibody, human IgG1, lambda, V domains shown, full IgG1/lambda chains; name tied through the DNA section of Appendix IX (same order); also called JEG-C2-11; B-000000399-000E) VH: QLQLVETGGGLVQPVGSLRLSCAASGFSFDNYAMSWVRQAPGKGLEWVSSISGSGGQIFYADSVKGRFTISRDNAKNTLVLQMNSLRVDDTAVYYCARDFYRTPGYNTNWGYWGRGTMVTVSS VL: SYVLTQPPSVSVSPGETASISCSGDGLGNKYVAWYQQKPGQSPVLVIQQDSKRPSGIPERFSGSNSGDTATLTISGTQSLDEGDYYCQAWDRPAVIFGGGTKLTVLG |  |  |  |  |  |  |  | < 5 | > 1000
FL-SKNAS-C2-514 (antibody, human IgG1, lambda, V domains shown, full IgG1/lambda chains; name tied through the DNA section of Appendix IX (same order); also called B-000000402-000X) VH: EVQLVQSGAEVKEPGESLRISCKASGYDFSNYWIAWVRQMPGKGLEWMGIIYPGDSDTRYSPSFQGQVTISVDRSISTAYLQWSSLKASDTALYYCSRPTYWSTTWGREFDYWGQGTLVTVSS VL: SYELTQPPSVSVSPGQTATITCSGDALPKKYAYWYQQKSGQAPVLVVYEDSKRPSGIPERFSGSSSGTMATLTISGAQVEDEADYYCYSTDSSGNHWVFGGGTKLTVLG |  |  |  |  |  |  |  | < 5 | > 1000
FL-SKNAS-D2-268 (antibody, human IgG1, lambda, V domains shown, full IgG1/lambda chains; name tied through the DNA section of Appendix IX (same order); also called B-000000395-000V) VH: not shown VL: QAVLTQPSSVSGAPGQRVTISCTGTSSNIGAPYDVNWYQQLPGIAPKLLISGNTNRPSGVPDRFSGSKSGASASLAITGLQADDEADYYCQSYDHSLSGWVFGGGTKVTVLG |  |  |  |  |  |  |  | < 5 | > 1000
